# Test: yeast display, Sf9 membrane polyspecificity reagent, FACS + sequencing; frameworks hold sequencing errors
# Method in brief: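 Sorting gates, low and high (top ~1%), were placed on anti-HA fluorescence to track expression and on streptavidin fluorescence to track reagent binding. A clone's polyreactivity label is taken from the gate it came out of. The reagent was 10% biotinylated, detergent-solubilized Sf9 membrane, applied for 1 hour at 4 °C to galactose-induced yeast display cells.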
row,Sequence,polyreactivity (PSR sort gate)
1,QVQLVESGGGLVQAGGSLRLSCASSGSTFAQNTMGWYRQAPRKERELVATISDGGGSTYYADSVKGRFTISRDNAKNTVYLQMNSLKPEDTAVYYCNTDRFWPSDYWGQGTQVTVSS,low polyreactivity
2,QVQLVESGGGLVQAGGSLRLSCASSGSTFFLNAMGWYRQAPGKEREFVAAISYTSTSTYYADSVKGRFTISRDNAKNTVYLQMNSLKPEDTAVYYCAVDAAGWYYTVETGDYAEDYWGQGTQVTVSS,low polyreactivity
3,QVQLVESGGGLVQAGGSLRLSCASSGSTFPRNAMGWYRQAPGKERELVAAITRSGANTHYADSVKGRFTISRDNAKNTVYLQMNSLKPEDTAVYYCAARSFTAYLGYYWGQGTQVTVSS,high polyreactivity
4,QVQLVESGGGLVQAGGSLRLSCASSGSTFRYYAMGWYRPPPGKEREWVAVITSGGSTYYADSVKGRFTISRDNAKNTVSLQMNSLKPEDTAVDYCAAVYAFYVDFDYWGQGTQVTVSS,low polyreactivity
5,QVQLVESGGGLVQAGGSLRLSCASSGSTFSPNAMGWYRQAPGKERELVAAITYRGANTYYADSVKGRFTISRDNAKNTVYLQMNSLKPEDTAVYYCAAEYAYHHVGFGYWGQGTQVTVSS,low polyreactivity
6,QVQLVESGGGLVQAGGSLRLSCASSGSTIYPNAMGWYRQAPGKERELVARISRTGGSTYADSVKGRFTISRDNAKNTVYLQMNSLKPEDTAVYYCARSYASFSWLRTKEPYEYWGQGTQVTVSS,low polyreactivity
7,QVQLVESGGGLVQAGGSLRLSCASSGSTIYYNAMGWYRQAPGKERELVAAISNAGSTYYADSVKGRFTISRDNAENTVYLQMNSLKPEDTAVYYCAKRFRGITYSYYYWGQGTQVTVSS,high polyreactivity
8,QVQLVESGGGLVQAGGSLRLSCASSGSTLRSYAMGWYRQAPGKERELVAAIDWDGGRTYYADSVKGRFTISRDNAKNTVYIQMNSLKPEDTAVYYCNTSAGWSNGKDEGDFYSGFDYWVQGTQVTVSS,low polyreactivity
9,QVQLVESGGGLVQAGGSLRLSCASSGYIFAGNAMGWYRQAPGKERELVAVITRGGRTYYADSVKGRFTISRDNAKNTVYLQMNSLKPEDTAVYYCAARYPYRGWGQGTQVTVSS,high polyreactivity
10,QVQLVESGGGLVQAGGSLRLSCASSGYTFTIYAMGWYRQAPGKERELVAAITGRGGRTNYADSVKGRFTISRDNAKNTVYLQIYRLIPVDTAVYYCNAVTKVVYHGPYGYDYWGQGTQVTVSS,high polyreactivity
11,QVQLVESGGGLVQAGGSLRLSCATSGGTLVANAMGWSSQPPGKESEFVAVITLTAGSTSYADSVKGRLTISRDNAKNTVYLQMNSLKPEDTAVYYCNVDVYNVYNSYPYYYWGQGTQVTVSS,low polyreactivity
12,QVQLVESGGGLVQAGGSLRLSCATSGSTSYPYAMGWYRQAPGKERELVAAISTSGSTTYYADSVKVRFTLSRDNAKKTVYLQMNSLKPEDTAVYYCAKGVNFSQYPFSAYGDGGRYDYWGQGTQVTVSS,low polyreactivity
13,QVQLVESGGGLVQAGGSLRLSCDASGFIFYEYAMGWSRQAPGKEREFVAAISRSGTRTYYADSVKGRFTISRDNAKNTVYLQMNSLKPEDTAVYYCAAAYYGYARWRGPRKMDYWGQGTQVTVSS,high polyreactivity
14,QVQLVESGGGLVQAGGSLRLSCDASGFTFDDYAMGWYRQAHGNEMELVAAISSSRDSTYNADSVKGRFTISRDYEKNTVYLQINSLKPQDTAVYYCAAEYDREEYSGYDYWGEGTQVTVSS,low polyreactivity
15,QVQLVESGGGLVQAGGSLRLSCDASGFTFHPYTMGWYRQAPGKERELVASISWGGGSTYYADSVKGRFTISRDNAKNTVYLQMKSLNPEDTAVYYCAKDITYIYYYWGQGSQVTVSS,low polyreactivity
16,QVQLVESGGGLVQAGGSLRLSCDASGFTFSAYAMGWYRQAPGKERELVAAISTRGGSTRYADSVKGRFTISRDNAKNTVYLQMNSLKPEDTAVYYCADDTRSFYRYDYWGQGTQVTVSS,high polyreactivity
17,QVQLVESGGGLVQAGGSLRLSCDASGFTFVDYTMGWYRQAPGKERELVAAISRRGGSTYYADSVKGRFTISRANSKNTVYLQLNSLQQADTAVYYCNAYRRNYYYYQRHGYWGQCTQVTVSS,high polyreactivity
18,QVQLVESGGGLVQAGGSLRLSCDASGFTIYHYAIGCYRQATGKERELVDANSRSGGSTYYADSVKGRFTISRDNAQNTFYLQMNSLKPEDTAVYYCAKVLRAKNSFDYWGQGTQVTVSS,high polyreactivity
19,QVQLVESGGGLVQAGGSLRLSCDASGNTFGSYAMGWYGQAPGKEREVVASISGGGSTNYADSVKGRFTISRDNATNTVYLQMNSLKPEDTAVYDCAPRYYYRYYWRQGTQVTVSS,low polyreactivity
20,QVQLVESGGGLVQAGGSLRLSCDASGRIFASNAMGWYRQAPGKERELVATIRRSGGSTYYADSVKGRFTISRDNAKNTVYLQMNSLKPEDTAVYYCNARMYGGYGWIYDYWRQGTQVTVSS,high polyreactivity
21,QVQLVESGGGLVQAGGSLRLSCDASGRIFRKNAMGWYRQAPGKERELVAAISGGGGSTYYADSVKGRFTISRDNAKNTVYLQMNSLKPEDTADYYCNAPILPGYWGQGTQVTVSS,high polyreactivity

row,Sequence,polyreactivity (PSR sort gate)
1,QVQLVESGGGLVQAGGSLRLSCDASGRIFRYYAMGWYRQAPGKERELVAAISSDGSTDYADSVKGRFTISRDNAKNTVYLQMNSLKPEDTAVYYCAASVVSYGHDYWGQGTQVTVSS,low polyreactivity
2,QVQLVESGGGLVQAGGSLRLSCDASGRIFSRYAIGWYRQAPGKERELVAAITQSGTSTYYADSVKGRFTISRDNAKNTVYLQMNSLNPEDTAVYYCNAYRQYRYDYWGQGTQVTVSS,low polyreactivity
3,QVQLVESGGGLVQAGGSLRLSCDASGRIFSVYAMGWYRQEPGKEREFVSAISRGGSTNYADSVNGRFTISRDNAKYTVYLQKNSLKPEDTAVYYWGASSLPNYYYRHYYLYEYWGQGTQVTVSS,low polyreactivity
4,QVQLVESGGGLVQAGGSLRLSCDASGRIIAFYVMGWYRQAPGKERELVAAITSGGNTNYADSVKGRFTISRDNAKNTVYLQMNSLKPEDTAVYYCAVPVLTYVSDYYWGQGTQVTVSS,low polyreactivity
5,QVQLVESGGGLVQAGGSLRLSCDASGRTFAYYAMGWYRQAPGKERELVAAISNGGSTYYADSVKGRFTISRDNAKNTVYLQMNRLKPEDTSVYYCNAYYSDLYDYWGQGTQVTVSS,low polyreactivity
6,QVQLVESGGGLVQAGGSLRLSCDASGRTFGHKAMAWYRQAPGKEREFVAAITYSCVRTFYADSVKGRFTISRDNAKNTVYLQMNSLKQEDTAVYYCATDWRRDYDFWGQGTQVTVSS,low polyreactivity
7,QVQLVESGGGLVQAGGSLRLSCDASGRTFRFNDGGWYRQAPVKERELVAAITYRGGSTYYPDSVKGRFTISRDNAKNTVYLQMNSLKPDDTAVYYCAADYFWSRTQEFDYWGQGSQVTVSS,high polyreactivity
8,QVQLVESGGGLVQAGGSLRLSCDASGRTFRYYAMGWYRQAPGKEREMVAAITRSGGSTYYADSVKGRFTISRDNAKNTVYLQMNSLKAVDTAVYYCAESRFYSYGIDYDYWGQGTQVTVSS,high polyreactivity
9,QVQLVESGGGLVQAGGSLRLSCDASGSIFDPYAMGWYRQAPGKERELVAGISFSGGRTYYADSVKGRFTISRDNAKNTVYLQMNSLKPEDTAVYYCKKLLTQGAYPYYYWGQGTQVTVSS,high polyreactivity
10,QVQLVESGGGLVQAGGSLRLSCDASGSIFIANAMGWYRQAPGKEREFVAAINWSRGSTYYADSVKGRFTISRDNAKNTVYLQMNSLKPEDTAVYYCNAASLKFTSPVRFGYWGQGTQVTVSS,high polyreactivity
11,QVQLVESGGGLVQAGGSLRLSCDASGSIFKYYAMGWYRQAPGKEREWVAAITIGGNTNYADSVKGRFTISRDNAKNTVYLQMNSLKPEDTAVYYCATGGYYSAIVYGGYDYWGQGTQVTVSS,low polyreactivity
12,QVQLVESGGGLVQAGGSLRLSCDASGSIIRYYAMGWYRQAPGKERELVAAINSLGGTTYYADSVKGRFTISRDNAKNTVYLQMNSLKPEDTAVYYCAAGYPPLHTSVQQTAHYGLDYCGQGTQVTVSS,high polyreactivity
13,QVQLVESGGGLVQAGGSLRLSCDASGSNFFYARGWSRQAPGRERELVADITYTGGSKYADSVKGRFTISRDNAKNTVDLQLNILKPEDTAVSYCAKLDGGLFDYWGQGTQVNVSS,low polyreactivity
14,QVQLVESGGGLVQAGGSLRLSCDASGSTFDNYAMGWYRQAPGKERELVAAITTGVTTYYADSVKGRFTISRDNAKNTVYLQMNSLKPEDTAVYYCAADYVSYSQARHEYGYWGQGTQVTVSS,low polyreactivity
15,QVQLVESGGGLVQAGGSLRLSCDASGSTFDQYVMGWYRQAPWKERELVAAISVSGGRTYYADSVKGRFTISRDNAKNTVYLQMKSLKPDDTAVYYCNAPKRYSSIGYDYWGQGTQVTVSS,high polyreactivity
16,QVQLVESGGGLVQAGGSLRLSCDASGSTFDYYAMGWYRQAPGKERELVAGIDSAGSTNYADSVKGRFTISRDNAKNTVYLQMNSLKTGRYRGLYCNVGKTITTYAFPTFDYCGQGTQVTVSS,low polyreactivity
17,QVQLVESGGGLVQAGGSLRLSCDASGSTFRGYAMGWYRPAPGKERELVAAITSDGSTNYADSEKGRFTISRDNAKNTVYLQMNSLKPEDTAVYYCNVKATRKWWDRRVYRYNYWGQGTQVTVSS,high polyreactivity
18,QVQLVESGGGLVQAGGSLRLSCDASGSTFRGYAMGWYRQAPGKERDLVAAISRYGGSTYYADSVKGRFTISRDNAKTTVYIQMNSLKPEDTAGYYCNARSSKRSSRGYDYWGQGTQVTVSS,high polyreactivity
19,QVQLVESGGGLVQAGGSLRLSCDASGSTFSPYAMRWYRQAPGKERELVAAINYSSGSTYYADSVKGRFTISRDNAKNTVYLQMNSLKPEDTAVYYCAYGWYAGYPYDYWGQGTQVTVSS,low polyreactivity
20,QVQLVESGGGLVQAGGSLRLSCDASGSTFYRNVIGWYRQAPGKERELVAAISSGGSTYYADSVKGRFTISRDNAKNTVYFQMNSLKPEDTAVYYCAARKRYSYDYWGQGTQVTVSS,low polyreactivity
